Test [1] has as its target T1, CD30-His (Sino Biological, 10777-H08H) (UniProt P28908 19-379).
T1 construct: Bought protein; also called CD30-His protein; CD30 protein; not shown: His tag
T1 sequence (looked up): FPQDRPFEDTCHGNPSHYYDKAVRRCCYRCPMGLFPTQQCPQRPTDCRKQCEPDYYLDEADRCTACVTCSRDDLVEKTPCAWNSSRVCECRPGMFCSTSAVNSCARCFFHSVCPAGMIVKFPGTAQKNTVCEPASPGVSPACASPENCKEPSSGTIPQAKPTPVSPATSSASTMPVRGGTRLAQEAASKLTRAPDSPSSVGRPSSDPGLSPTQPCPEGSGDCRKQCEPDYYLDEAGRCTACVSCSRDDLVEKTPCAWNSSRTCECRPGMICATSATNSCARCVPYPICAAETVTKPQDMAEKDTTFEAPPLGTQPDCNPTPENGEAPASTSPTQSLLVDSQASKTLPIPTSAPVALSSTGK
Kind of test: ELISA, scFv-Fc titrated on plate coated with 1 µg/mL CD30-His. The method, then:
For ELISA, the eleven purified anti-CD30 scFv-Fc forms and the positive control HRS scFV-Fc were 1/3 diluted for 10 points starting from 10 μg/mL in a plate coated with 1 μg/mL CD30-His protein. After treatment with a secondary antibody (anti-hIgG-Fc-HRP (Invitrogen, H10007)), a color was developed with TMB. OD₄₅₀ values were read using an ELISA reader, and EC₅₀ values were measured by means of Graph prism (FIG. 1, Table 3).

In test [2] the target is T2, CD30 expressed on cells (CD30-293T, SUDHL1, HDLM-2) (UniProt P28908 19-595).
T2 sequence (looked up): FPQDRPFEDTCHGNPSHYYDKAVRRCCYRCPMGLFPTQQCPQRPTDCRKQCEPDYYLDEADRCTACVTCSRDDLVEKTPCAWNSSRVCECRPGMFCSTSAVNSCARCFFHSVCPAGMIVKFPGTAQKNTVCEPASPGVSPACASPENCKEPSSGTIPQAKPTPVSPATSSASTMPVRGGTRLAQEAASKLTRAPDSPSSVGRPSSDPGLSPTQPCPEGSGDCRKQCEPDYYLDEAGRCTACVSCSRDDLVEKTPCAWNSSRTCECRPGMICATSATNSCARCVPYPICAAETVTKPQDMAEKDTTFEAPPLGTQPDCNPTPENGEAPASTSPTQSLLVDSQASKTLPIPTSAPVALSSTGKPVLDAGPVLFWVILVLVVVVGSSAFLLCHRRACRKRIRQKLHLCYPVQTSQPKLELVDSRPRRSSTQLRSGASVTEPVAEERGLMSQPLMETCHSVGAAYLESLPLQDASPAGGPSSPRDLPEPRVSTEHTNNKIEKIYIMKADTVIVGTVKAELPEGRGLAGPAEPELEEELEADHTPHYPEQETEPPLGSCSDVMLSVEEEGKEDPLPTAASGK
Put plainly: cell-based or functional assay.

The target of test [3] is T2, CD30 expressed on cells (CD30-293T, …). Put plainly: cell-based or functional assay. This is another data set of the same source.
Test [4] shares this target. Put plainly: cell-based or functional assay. This is another data set of the same source.

B1: T1-7 anti-CD30 scFv-Fc (Fc fusion)
scFv: EVQLLESGGGLVQPGGSLRLSCAASGFTFSGYGMSWVRQAPGKGLEWVSYISSGSYYTYYADSVKGRFTISRDNSKNTLYLQMNSLRAEDTAVYYCARYRGDNDYYGYFDYWGQGTLVTVSSGGGGSGGGGSGGGGSQSVLTQPPSASGTPGQRVTISCSCSSSNIGNNAVSWYQQLPGTAPKLLIYRNNQRPSGVPDRFSGSKSGTSASLAISGLRSEDEADYYCAADYGSDYVFGGGTKLTVLG
notes: scFv-Fc-conjugated form (Zb-Fc); also called Zb-Fc form; not shown: Fc of the scFv-Fc (Zb-Fc) form and any junction to it
By EC50 is commonly meant the midpoint of the concentration-response curve. A higher EC50 goes with lower potency in that assay. Molecule B1 had a half-maximal effective concentration (EC50) in test [1] of 0.048 µg/mL.

B2: T1-2 anti-CD30 scFv-Fc (Fc fusion)
scFv: EVQLLESGGGLVQPGGSLRLSCAASGFTFSGYGMSWVRQAPGKGLEWVSYISGYSYYTYYADSVKGRFTFSRDNSKNTLYLQMNSLRAEDTAVYYCARYDGNGFDYWGQGTLVTVSSGGGGSGGGGSGGGGSQSVLTQPPSASGTPGQRVTISCSGSSSNIGSNYVYWYQQLPGTAPKLLIYRNNQRPSGVPDRFSGSKSGTSASLAISGLRSEDEADYYCAADSSDDSYVFGGGTKLTVLG
notes: Cloned in an scFv-Fc-conjugated form (Zb-Fc); detected with anti-human IgG Fc; also called Zb-Fc form; not shown: Fc of the scFv-Fc (Zb-Fc) form and any junction to it
B2: the half-maximal effective concentration (EC50) in test [1] was determined as 0.06 µg/mL.

B3: scFv CAR of anti CD30 antibody (T1-159), on CAR-T cells (other)
chain: EVQLLESGGGLVQPGGSLRLSCAASGFTFSSYGMSWVRQAPGKGLEWVSSIYYYSGGTYYADSVKGRFTISRDNSKNTLYLQMNSLRAEDTAVYYCARNDYRNNSDFDYWGQGTLVTVSSGGGGSGGGGSGGGGSQSVLTQPPSASGTPGQRVTISCSGSSSNIGSNYVYWYQQLPGTAPKLLIYRNNQRPSGVPDRFSGSKSGTSASLAISGLRSEDEADYYCAAYYPYYYVFGGGTKLTVLGGQAGQTTTPAPRPPTPAPTIASQPLSLRPEACRPAAGGAVHTRGLDFACDIYIWAPLAGTCGVLLLSLVITLYCKRGRKKLLYIFKQPFMRPVQTTQEEDGCSCRFPEEEEGGCELRVKFSRSADAPAYQQGQNQLYNELNLGRREEYDVLDKRRGRDPEMGGKPRRKNPQEGLYNELQKDKMAEAYSEIGMKGERRRGKGHDGLYQGLSTATKDTYDALHMQALPPR
As for B3, the “tumor death rate on HDLM-2 cells, ratio of CAR-T to the target 0.25” value in test [2] is at least 50%. In test [3], the “Cytotoxicity (%) against CD30-expressing cell (SUDHL1), CAR-T/Target 0.11” value came to 24%; the “Cytotoxicity (%) against CD30-expressing cell (SUDHL1), CAR-T/Target 0.33” value came out at 58%; the “Cytotoxicity (%) against CD30-expressing cell (SUDHL1), CAR-T/Target 1” value stood at 88%. Besides, in test [4], the “Cytotoxicity (%) against CD30-expressing cell (CD30-293T), CAR-T/Target 0.11” value was -4%; the “Cytotoxicity (%) against CD30-expressing cell (CD30-293T), CAR-T/Target 0.33” value stood at 60%; the “Cytotoxicity (%) against CD30-expressing cell (CD30-293T), CAR-T/Target 1” value was 72%.

B4: T1-117 anti-CD30 scFv-Fc (Fc fusion)
scFv: EVQLLESGGGLVQPGGSLRLSCAASGFTFSYYGMSWVRQAPGKGLEWVSYISGYSSYTYYADSVKGRFTISRDNSKNTLYLQMNSLRAEDTAVYYCARYNDSGSFDYWGQGTLVTVSSGGGGSGGGGSGGGGSQSVLTQPPSASGTPGQRVTISCSGSSSNIGSNYVYWYQQLPGTAPKLLIYRNNQRPSGVPDRFSGSKSGTSASLAISGLRSEDEADYYCAADAGNRYVFGGGTKLTVLG
notes: scFv-Fc-conjugated form (Zb-Fc); also called Zb-Fc form; not shown: Fc of the scFv-Fc (Zb-Fc) form and its junction
Consider B4, for which a half-maximal effect in test [1] (EC50) was put at 0.157 µg/mL.

B5: T1-141 anti-CD30 scFv-Fc (Fc fusion)
scFv: EVQLLESGGGLVQPGGSLRLSCAASGFTFSYYDMSWVRQAPGKGLEWVSGIYGSGSTYYADSVKGRFTISRDNSKNTLYLQMNSLRAEDTAVYYCARYSYYDSYSDYFDYWGQGTLVTVSSGGGGSGGGGSGGGGSQSVLTQPPSASGTPGQRVTISCSGSSSNIGSNYVYWYQQLPGTAPKLLIYRNNQRPSGVPDRFSGSKSGTSASLAISGLRSEDEADYYCAAYSYGYYVFGGGTKLTVLG
notes: as for B4
Turning to B5, the EC50 in test [1] is 0.026 µg/mL.

B6: T1-8 anti-CD30 scFv-Fc (Fc fusion)
scFv: EVQLLESGGGLVQPGGSLRLSCAASGFTFSSYMSWVRQAPGKGLEWVSSIGSGYYSTYYADSVKGRFTISRDNSKNTLYLQMNSLRAEDTAVYYCARDYYGGFDYWGQGTLVTVSSGGGGSGGGGSGGGGSQSVLTQPPSASGTPGQRVTISCSGSSSNIGSNYVYWYQQLPGTAPKLLIYRNNQRPSGVPDRFSGSKSGTSASLAISGLRSEDEADYYCAAYDSYSYVFGGGTKLTVLG
notes: scFv-Fc-conjugated form (Zb-Fc); also called Zb-Fc form; not shown: Human Fc of the scFv-Fc (Zb-Fc) form and its junction to the scFv
In test [1], B6 returned an EC50 of 0.051 µg/mL.

B7: T1-23 anti-CD30 scFv-Fc (Fc fusion)
scFv: EVQLLESGGGLVQPGGSLRLSCAASGFTFSSYSMSWVRQAPGKGLEWVSGIGYPYYTYYADSVKGRFTISRDNSKNTLYLQMNSLRAEDTAVYYCARYYYDYGFDYWGQGTLVTVSSGGGGSGGGGSGGGGSQSVLTQPPSASGTPGQRVTISCSGSSSNIGSNYVYWYQQLPGTAPKLLIYRNNQRPSGVPDRFSGSKSGTSASLAISGLRSEDEADYYCAAYRSYDYVFGGGTKLTVLG
notes: as for B4
Turning to B7, in test [1], the EC50 was determined as 0.023 µg/mL.

B8: T1-36 anti-CD30 scFv-Fc (Fc fusion)
scFv: EVQLLESGGGLVQPGGSLRLSCAASGFTFSYYYMSWVRQAPGKGLEWVSYIGGGGSGTYYADSVKGRFTISRDNSKNTLYLQMNSLRAEDTAVYYCARGPYYGYFDYWGQGTLVTVSSGGGGSGGGGSGGGGSQSVLTQPPSASGTPGQRVTISCSGSSSNIGSNYVYWYQQLPGTAPKLLIYRNNQRPSGVPDRFSGSKSGTSASLAISGLRSEDEADYYCAAYPSYDSYVFGGGTKLTVLG
notes: as for B4
The molecule B8 registered a half-maximal effective concentration (EC50) in test [1] of 0.021 µg/mL.

B9: T1-9 anti-CD30 scFv-Fc (Fc fusion)
scFv: EVQLLESGGGLVQPGGSLRLSCAASGFTFSYYGMSWVRQAPGKGLEWVSGIGSYSSYTYYADSVKGRFTISRDNSKNTLYLQMNSLRAEDTAVYYCARYASSPDAYFDYWGQGTLVTVSSGGGGSGGGGSGGGGSQSVLTQPPSASGTPGQRVTISCSGSSSNIGSNYVYWYQQLPGTAPKLLIYRNNQRPSGVPGRFSGSKSGTSASLAISGLRSEDEADYYCAAYYNYNYVFGGGTKLTVLG
notes: as for B4
In test [1], B9 came in with an EC50 of 0.026 µg/mL.

B10: T1-10 anti-CD30 scFv-Fc (Fc fusion)
scFv: EVQLLESGGGLVQPGGSLRLSCAASGFTFSSYGMSWVRQAPGKGLEWVSYISGGSYYTYYADSVKGRFTISRDNSKNTLYLQMNSLRAEDTAVYYCARYGYGYYDGSFDYWGQGTLVTVSSGGGGSGGGGSGGGGSQSVLTQPPSASGTPGQRVTISCSGSSSNIGSNYVYWYQQLPGTAPKLLIYRNNQRPSGVPDRFSGSKSGTSASLAISGLRSEDEADYYCAADGPYNYVFGGGTKLTVLG
notes: as for B4
In turn, B10 came in with a 50% effective concentration (EC50) in test [1] of 0.031 µg/mL.

B11: T2-2 anti-CD30 scFv-Fc (Fc fusion)
chain: EVQLLESGGGLVQPGGSLRLSCAASGFTFSSYHMSWVRQAPGKGLEWVSGIGYGHGGTYYADSVKGRFTISRDNSKNTLYLQMNSLRAEDTAVYYCARYDYDYSFDYWGQGTLVTVSSGGGGSGGGGSGGGGSQSVLTQPPSASGTPGQRVTISCSGSSSNIGSNYVYWYQQLPGTAPKLLIYRNNQRPSGVPDRFSGSKSGTSASLAISGLRSEDEADYYCAVSSPYSYVFGGGTKLTVLG
notes: scFv-Fc-conjugated form (Zb-Fc); also called Zb-Fc form; not shown: Fc of the scFv-Fc form (Zb-Fc)
B11 gave an EC50 in test [1] of 0.038 µg/mL.

B12: T1-159 anti-CD30 scFv-Fc (Fc fusion)
scFv: EVQLLESGGGLVQPGGSLRLSCAASGFTFSSYGMSWVRQAPGKGLEWVSSIYYYSGGTYYADSVKGRFTISRDNSKNTLYLQMNSLRAEDTAVYYCARNDYRNNSDFDYWGQGTLVTVSSGGGGSGGGGSGGGGSQSVLTQPPSASGTPGQRVTISCSGSSSNIGSNYVYWYQQLPGTAPKLLIYRNNQRPSGVPDRFSGSKSGTSASLAISGLRSEDEADYYCAAYYPYYYVFGGGTKLTVLG
notes: as for B1
In test [1], B12 showed an EC50 of 0.26 µg/mL.

The values above are taken from patent US20240392023A1 (ABCLON, published 2024).
